Measured values: patent US20070218504A1, “HUMAN LEPTIN-DERIVED POLYPEPTIDES AND USES THEREOF” (UNIVERSITY OF PITTSBURGH, priority 2006, published 2007)
Entries after “also recorded” stand apart in the source; their conditions may differ.

Tests used:
human CRP = biological target: T1, human CRP (Homo sapiens, UniProt P02741); experiment: Polypeptide blocking of human CRP inhibition of leptin-stimulated STAT3 tyrosine phosphorylation in HEK-293 cells over-expressing OB-Rb; format: cell-based; details: for restoration of leptin-stimulated STAT3 activation in presence of human CRP, Example 8 comparison: human CRP 8 μg/ml, human leptin 2 nM, 1 hour pre-incubation, up to 0.8 μM (800 nM); for effect of polypeptide by itself on STAT phosphorylation: control, polypeptide alone; for blocking of the inhibitory effect of human CRP on leptin signaling (STAT3 tyrosine phosphorylation): polypeptide pre-incubated with human CRP 30 minutes, then human leptin 45 minutes
T1 construct: purchased CHEMICON or EMD Biosciences
T1 sequence (P02741 19-224): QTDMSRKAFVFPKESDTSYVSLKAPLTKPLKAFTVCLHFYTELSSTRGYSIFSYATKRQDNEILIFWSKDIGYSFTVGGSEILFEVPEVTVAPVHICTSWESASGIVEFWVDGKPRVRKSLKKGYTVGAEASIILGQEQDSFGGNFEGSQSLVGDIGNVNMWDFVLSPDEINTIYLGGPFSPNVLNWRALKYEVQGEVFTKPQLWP
Procedure: In the in vitro experiment, each of these polypeptide was pre-incubated with human CRP for 30 minutes before being mixed with human leptin for an additional 45 minutes. The resultant mixture was then added to the HEK-293 cells over-exprssing the long form leptin receptors, OB-Rb. After a 30-minute incubation, the cells were harvested in a protein extraction buffer (18). The signaling of leptin in the cells, measured by its ability to stimulate tyrosine phosphorylation on STAT3 in a western blot assay, was evaluated (see FIGS. 8, 9, 10 for polypeptides B, C1 and E, respectively).
Pursuant to an in vitro protocol similar to that described in Example 6, a hexamer disclosed in U.S. Pat. No. 6,777,388, NH2—S—C—H-L-P—W—COOH (SEQ ID NO:18), was pre-incubated with human CRP (8 μg/ml) and human leptin (2 nM) for 1 hour. The resultant mixture then was added to HEK-293 cells that over-expressed the long form leptin receptor, OB—Rb. After a 30-minute incubation, the cells were harvested in a protein extraction buffer. To evaluate signaling of human leptin in the cells, tyrosine phosphorylation on STAT3 was measured in a western blot assay.

ob/ob mice [1] = experiment: Co-infusion of polypeptide E with human CRP and leptin through mini-osmotic pumps into ob/ob mice; format: in vivo, mouse; details: for restoration of satiety and weight-reducing effects of human leptin (food intake, body weight): Pep-E 24 or 48 μg/day/mouse with human CRP 48 μg/day/mouse and leptin 12 μg/day/mouse
Procedure: FIG. 11. […] Infusion dosages for human CRP and leptin were 48 μg/day/mouse and 12 μg/day/mouse, respectively. The infusion rate for Pep-E (P) was 24 μg/day/mouse (medium dosage, “m”) and 48 μg/day/mouse (high dosage, “h”). Food-intake (A and C) and body weight (B and D) were monitored daily throughout the infusion. The arrows in A-D indicate the day of surgery. At the end of infusion, blood samples were collected for the measurement of blood-glucose, human CRP, and human leptin. The serum concentrations of human CRP and human leptin were 0.85±0.1 μg/ml and 18 ng±2 ng/ml, respectively. […] Also shown is glucose concentration from mice infused with human CRP and leptin but not with Pep-E.
In the in vivo experiment, polypeptide E was co-infused through mini-osmotic pumps with human CRP and leptin into the ob/ob mice. Food intake in the period of 24 hours and body weight were followed during the infusion period (FIGS. 11A-11D).

[2] = biological target: long-form human leptin receptor, OB-Rb (human) (UniProt P48357); experiment: 125I-human leptin binding to HEK293 cells stably transfected with human OB-Rb
Sequence of long-form human leptin receptor, OB-Rb (human) (P48357 22-1165): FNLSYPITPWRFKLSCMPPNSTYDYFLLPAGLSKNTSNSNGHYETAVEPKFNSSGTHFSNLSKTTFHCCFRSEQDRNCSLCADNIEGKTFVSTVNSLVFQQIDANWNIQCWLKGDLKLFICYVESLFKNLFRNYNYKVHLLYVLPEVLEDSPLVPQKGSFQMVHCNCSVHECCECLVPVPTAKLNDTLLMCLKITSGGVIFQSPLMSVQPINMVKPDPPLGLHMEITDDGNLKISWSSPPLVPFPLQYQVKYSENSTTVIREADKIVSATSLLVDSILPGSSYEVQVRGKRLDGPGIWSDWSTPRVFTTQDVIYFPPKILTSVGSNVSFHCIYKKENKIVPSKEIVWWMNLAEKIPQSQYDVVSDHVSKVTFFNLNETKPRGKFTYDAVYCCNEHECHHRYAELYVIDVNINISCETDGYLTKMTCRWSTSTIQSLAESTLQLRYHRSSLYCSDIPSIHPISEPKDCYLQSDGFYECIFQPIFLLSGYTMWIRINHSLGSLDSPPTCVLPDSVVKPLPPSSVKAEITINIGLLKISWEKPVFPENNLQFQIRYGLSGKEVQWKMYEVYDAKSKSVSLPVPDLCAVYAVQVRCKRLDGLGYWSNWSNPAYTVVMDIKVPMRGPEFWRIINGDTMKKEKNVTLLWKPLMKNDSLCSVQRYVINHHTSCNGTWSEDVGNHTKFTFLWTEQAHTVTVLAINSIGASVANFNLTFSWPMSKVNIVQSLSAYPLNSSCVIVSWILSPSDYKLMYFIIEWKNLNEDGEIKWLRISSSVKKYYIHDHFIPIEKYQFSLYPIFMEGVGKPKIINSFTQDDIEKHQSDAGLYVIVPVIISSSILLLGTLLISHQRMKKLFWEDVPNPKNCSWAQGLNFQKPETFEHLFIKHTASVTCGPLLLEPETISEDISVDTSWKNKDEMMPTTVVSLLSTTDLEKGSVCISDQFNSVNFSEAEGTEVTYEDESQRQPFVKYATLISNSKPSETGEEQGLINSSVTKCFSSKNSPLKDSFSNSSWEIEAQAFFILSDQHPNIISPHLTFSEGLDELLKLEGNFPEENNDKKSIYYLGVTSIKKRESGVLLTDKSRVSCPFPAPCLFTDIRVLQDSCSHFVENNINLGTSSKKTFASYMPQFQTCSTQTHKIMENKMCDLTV

[3] = system: tyrosine phosphorylation of STAT3; experiment: Leptin-induced tyrosine phosphorylation of STAT3 in HEK293 cells over-expressing OB-Rb in the presence of CRP (Western blot); format: cell-based, human; details: separate control, concentrations much higher than CRP
Procedure: To determine if the interaction between CRP and leptin dampens the cellular actions of leptin, the ability of leptin to stimulate tyrosine phosphorylation of STAT3 and PI3-kinase activity was assessed in the presence of CRP in vitro. HEK293 cells over-expressing OB-Rb were serum starved for 2 hours before addition of leptin and CRP (CHEMICON or EMD Biosciences). Leptin, in the presence or absence of CRP, was pre-incubated in μ-MEM (with additional 1 mM Ca^2+) for 30 minutes at 37° C. before being applied to the cells. After a 30-minute incubation with leptin, the cells were harvested in lysis buffer (18). The resultant protein extract was subjected to a Western blot analysis using an anti-phospho-STAT3 specific antibody (Cell Signaling, Beverly, Mass.). For studies involving primary hypothalamic neurons, the hypothalamus from rats was surgically isolated immediately after euthanasia, and placed in the DMEM for incubation with leptin in the presence or absence of CRP.

human leptin = biological target: T2, human leptin (human, UniProt P41159 22-167, 125I-labelled (Iodogen method) in the receptor binding assay of Example 3); experiment: human CRP pre-incubated with 125I-human leptin (~2 ng/ml); inhibition of leptin binding to OB-Rb on HEK293 cells
T2 construct: Recombinant human leptin from AF Parlow, NHPP; also called recombinant human leptin
Procedure: After 10-minute incubation at room temperature, the reaction was stopped with 100 μl 0.1% trifluoroacetic acid (TFA). The reaction mixture was immediately purified by reverse-phase HPLC. The separation employed a 5-minute isocratic step at 20% eluant B in A, followed by two consecutive 30 min linear gradients from 20 to 50%, then from 50 to 60% eluant B in A (where eluant A is water containing 0.1% TFA and eluant B is acetonitrile containing 0.1% TFA) at a flow rate of 1.5 ml/min. […] The incubation would last for 3 hour at 4° C. before the media was aspirated and the cells were dissolved in 0.1N NaOH for scintillation counting.

rat C-reactive protein = biological target: T3, rat C-reactive protein (rat, UniProt P48199 20-230); experiment: rat serum on mouse leptin-Sepharose affinity column; eluted band identified by MALDI-TOF
T3 construct: mature; also called rat CRP; rat SLIP-1
T3 sequence (looked up): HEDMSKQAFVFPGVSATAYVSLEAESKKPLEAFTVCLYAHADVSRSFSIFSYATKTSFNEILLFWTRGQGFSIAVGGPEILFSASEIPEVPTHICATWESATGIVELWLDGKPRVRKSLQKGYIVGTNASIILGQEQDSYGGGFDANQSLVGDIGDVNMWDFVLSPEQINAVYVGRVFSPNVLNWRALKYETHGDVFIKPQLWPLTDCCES
Procedure: Retained material was eluted with an acidic glycine solution, and the eluate was immediately neutralized in a Tris-buffer (50 mM, pH=9.5).
The mass-spec assay was performed on Thermo Finnigan LTQ mass spectrometer by CTO-BIO Services (Rockville, Md.). Data analysis was carried out with the Turbo-Sequest software.

ob/ob mice [4] = experiment: Intracerebralventricular (i.c.v.) injection of human CRP and leptin in ob/ob mice, food intake and body weight; format: in vivo, mouse
[5] = mouse leptin i.c.v. after human CRP

For “H-WPLHCS-OH [D-form, reference compound]”, the “restoration of leptin-stimulated STAT3 activation in presence of human CRP, Example 8 comparison” value (shortened to “restoration … Example 8 comparison”) (human CRP) was “failed to restore”.

“KVQDDTKTLIKTIVTRINDISHTQS (listed as Homo sapiens) [polypeptide B, chemically synthesized human leptin-derived polypeptide, residues 26 to 50]” was tested, and the “effect of polypeptide by itself on STAT phosphorylation” value (from here on “effect of polypeptide by itself”) (human CRP) was “did not induce any changes; also recorded: does not have any effect” and the “blocking of the inhibitory effect of human CRP on leptin signaling (STAT3 tyrosine phosphorylation)” value (human CRP) was “able to block the inhibitory effect of human CRP and to restore leptin signaling”.

With “LAFSKSCHLPWASGLETLDSLGGVLEA (listed as Homo sapiens) [polypeptide E, chemically synthesized human leptin-derived polypeptide, residues 111 to 137]” the “restoration of satiety and weight-reducing effects of human leptin (food intake, body weight)” value (ob/ob mice [1]) was “able to restore both of these functions”, the “restoration of satiety and weight-reducing effects of human leptin (food intake, body weight)” value (ob/ob mice [1]; listed as Peptide-E) was “restored the physiological effects of human leptin” and the “restoration of effect of human leptin on blood glucose” value (ob/ob mice [1]; end of infusion, high dosage Pep-E) was “able to restore the beneficial effect”. The “effect of polypeptide by itself” value (human CRP) was “did not induce any changes; also recorded: does not have any effect”, the “effect of polypeptide by itself” value (human CRP; listed as Peptide-E) was “did not induce any changes” and the “restoration … Example 8 comparison” value (human CRP) was “able to restore”. For the same molecule, the “restoration … Example 8 comparison” value (human CRP; listed as Peptide-E) was “blocked the inhibitory effect” and the “blocking of the inhibitory effect of human CRP on leptin signaling (STAT3 tyrosine phosphorylation)” value (human CRP) was “able to block the inhibitory effect of human CRP and to restore leptin signaling”.

In the case of “NH2—S—C—H-L-P—W—COOH (H-SCHLPW-OH) [hexamer, hexamer disclosed in U.S. Pat. No. 6,777,388, reference compound]”, the “restoration … Example 8 comparison” value (human CRP) is reported as “unable to block” and the “restoration … Example 8 comparison” value (human CRP; listed as L-form) is reported as “failed to restore”.

With “VSSKQKVTGLDFIPGLHPILTLSKM (listed as Homo sapiens) [polypeptide C1, chemically synthesized human leptin-derived polypeptide, residues 51 to 75]” the “concentration at which the maximal effect can be reached” value (human CRP; FIG. 9A) was 50 nM, the “effect of higher concentration” value (human CRP; FIG. 9B) was “does not further improve its effect” and the “relative effectiveness in blocking the CRP activity on leptin” value (human CRP; compared with the other polypeptides) was “more effective at a lower concentration”. The “effect of polypeptide by itself” value (human CRP) was “did not induce any changes; also recorded: does not have any effect” and the “blocking of the inhibitory effect of human CRP on leptin signaling (STAT3 tyrosine phosphorylation)” value (human CRP) was “able to block the inhibitory effect of human CRP and to restore leptin signaling”.

“human leptin (from UniProt P41159 22-167) (ligand)” was tested, and the Kd [2] was 1 nM.

“human serum amyloid P component: control serum protein circulating at much higher concentrations than CRP [reference compound]” was tested, and the “effect of control serum protein on leptin-induced STAT3 phosphorylation / leptin signaling” value [3] was “did not influence leptin signaling”.

B1: human C-reactive protein (other, UniProt P02741 19-224, looked up)
chain: T1 sequence (P02741 19-224)
notes: also called human CRP; CRP
For B1, the IC50 (human leptin) was about 0.08 µg/mL and the “molecular ratio (CRP:leptin) at the IC50” value (human leptin) was 5.8.

B2: mouse leptin (ligand, UniProt P41160 22-167, looked up)
chain: VPIQKVQDDTKTLIKTIVTRINDISHTQSVSAKQRVTGLDFIPGLHPILSLSKMDQTLAVYQQVLTSLPSQNVLQIANDLENLRDLLHLLAFSKSCSLPQTSGLQKPESLDGVLEASLYSTEVVALSRLQGSLQDILQQLDVSPEC
modifications: 125I-labelled in the receptor binding assay of FIG. 4B
notes: also called murine-leptin; recombinant mouse leptin
B2: binds (rat C-reactive protein).

B3: Mouse leptin: mouse recombinant leptin (protein)
chain: B2 chain
B3 was tested, and the “decrease of food intake, PBS pre-injection” value (ob/ob mice [4]; mouse leptin i.c.v. after PBS) was 32.9%, the “reduction of body weight, PBS pre-injection” value (ob/ob mice [4]; mouse leptin i.c.v. after PBS) was 1.80% and the “decrease of food intake, human CRP pre-injection” value (ob/ob mice [4]; [5]) was 32.4%. For the same molecule, the “reduction of body weight, human CRP pre-injection” value (ob/ob mice [4]; [5]) was 1.76%.
